Key:
Experiment in all cases: anti-FLAG co-IP from lysate of N-FLAG B3GNT2 cells, mass spectrometry
SLC25A22 = molecular target: T1, SLC25A22 (human, UniProt Q9H936 1-323)
T1 construct: also called NP_001177990.1
T1 sequence (looked up): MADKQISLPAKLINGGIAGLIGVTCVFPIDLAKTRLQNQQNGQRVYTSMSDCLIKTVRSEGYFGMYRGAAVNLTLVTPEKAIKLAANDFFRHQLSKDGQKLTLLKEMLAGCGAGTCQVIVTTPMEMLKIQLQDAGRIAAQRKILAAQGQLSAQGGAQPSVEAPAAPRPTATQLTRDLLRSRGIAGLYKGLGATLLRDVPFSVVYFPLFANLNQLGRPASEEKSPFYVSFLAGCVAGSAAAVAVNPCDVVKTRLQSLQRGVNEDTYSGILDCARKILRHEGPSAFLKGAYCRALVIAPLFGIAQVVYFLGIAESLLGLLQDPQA
Protocol: (§1) Cells were plated in 10-cm cell culture dishes and grown to 60-80% confluency. For each condition, two biological replicates were harvested for co-IP. Cells were washed with PBS and 4 mL of lysis buffer (20 mM HEPES, 1% Triton X-100, 150 mM NaCl, 1 mM EDTA, and 10% glycerol) containing protease inhibitor cocktail was added. Cells were scraped and lysate was incubated at 4° C. under rotary agitation for 1 h. Lysate was centrifuged at 14,000×g for 10 min at 4° C. Supernatant was transferred to a new tube and an aliquot was taken as the input. […] For Western blots, 10 μg/mL Chicken Anti-FLAG (Aves labs ET-DY100) and IgY control (R&D Systems AB-101-C) antibodies were biotinylated (Thermo Fisher Scientific 90407) and added to the respective conditions. Lysates with antibodies were incubated at 4° C. under rotary agitation overnight. For each mL of lysate, 50 μL of Pierce Protein A/G Magnetic Beads (Mass spectrometry; Thermo Fisher Scientific 88803) or Pierce Streptavidin Magnetic Beads (Western blot; Thermo Fisher Scientific 88817) was washed twice with lysis buffer. Lysates with antibodies were added to the beads and incubated at 4° C. under rotary agitation for 4 h. Beads were washed with lysis buffer 3 times and resuspended in lysis buffer for storage.
(§2) Magnetic beads were resuspended in 100 mM Tris pH 7.8, reduced, alkylated and digested with trypsin at 37° ° C. overnight. This solution was subjected to solid phase extraction to concentrate the peptides and remove unwanted reagents followed by injection onto a Shimadzu HPLC with fraction collector. Eight fractions were collected and after concentration were injected on a Waters NanoAcquity HPLC equipped with a self-packed Aeris 3 μm C18 analytical column 0.075 mm by 20 cm, (Phenomenex). Peptides were eluted using standard reverse-phase gradients. The effluent from the column was analyzed using a Thermo Orbitrap Elite mass spectrometer (nanospray configuration) operated in a data dependent manner for 54 minutes. The resulting fragmentation spectra were correlated against the known database using Proteome Discover 1.4 (Thermo Fisher Scientific).

KTN1 = molecular target: T2, KTN1 (human, UniProt Q86UP2 1-1357)
T2 construct: also called NP_001072989.1 (+5)
T2 sequence (looked up): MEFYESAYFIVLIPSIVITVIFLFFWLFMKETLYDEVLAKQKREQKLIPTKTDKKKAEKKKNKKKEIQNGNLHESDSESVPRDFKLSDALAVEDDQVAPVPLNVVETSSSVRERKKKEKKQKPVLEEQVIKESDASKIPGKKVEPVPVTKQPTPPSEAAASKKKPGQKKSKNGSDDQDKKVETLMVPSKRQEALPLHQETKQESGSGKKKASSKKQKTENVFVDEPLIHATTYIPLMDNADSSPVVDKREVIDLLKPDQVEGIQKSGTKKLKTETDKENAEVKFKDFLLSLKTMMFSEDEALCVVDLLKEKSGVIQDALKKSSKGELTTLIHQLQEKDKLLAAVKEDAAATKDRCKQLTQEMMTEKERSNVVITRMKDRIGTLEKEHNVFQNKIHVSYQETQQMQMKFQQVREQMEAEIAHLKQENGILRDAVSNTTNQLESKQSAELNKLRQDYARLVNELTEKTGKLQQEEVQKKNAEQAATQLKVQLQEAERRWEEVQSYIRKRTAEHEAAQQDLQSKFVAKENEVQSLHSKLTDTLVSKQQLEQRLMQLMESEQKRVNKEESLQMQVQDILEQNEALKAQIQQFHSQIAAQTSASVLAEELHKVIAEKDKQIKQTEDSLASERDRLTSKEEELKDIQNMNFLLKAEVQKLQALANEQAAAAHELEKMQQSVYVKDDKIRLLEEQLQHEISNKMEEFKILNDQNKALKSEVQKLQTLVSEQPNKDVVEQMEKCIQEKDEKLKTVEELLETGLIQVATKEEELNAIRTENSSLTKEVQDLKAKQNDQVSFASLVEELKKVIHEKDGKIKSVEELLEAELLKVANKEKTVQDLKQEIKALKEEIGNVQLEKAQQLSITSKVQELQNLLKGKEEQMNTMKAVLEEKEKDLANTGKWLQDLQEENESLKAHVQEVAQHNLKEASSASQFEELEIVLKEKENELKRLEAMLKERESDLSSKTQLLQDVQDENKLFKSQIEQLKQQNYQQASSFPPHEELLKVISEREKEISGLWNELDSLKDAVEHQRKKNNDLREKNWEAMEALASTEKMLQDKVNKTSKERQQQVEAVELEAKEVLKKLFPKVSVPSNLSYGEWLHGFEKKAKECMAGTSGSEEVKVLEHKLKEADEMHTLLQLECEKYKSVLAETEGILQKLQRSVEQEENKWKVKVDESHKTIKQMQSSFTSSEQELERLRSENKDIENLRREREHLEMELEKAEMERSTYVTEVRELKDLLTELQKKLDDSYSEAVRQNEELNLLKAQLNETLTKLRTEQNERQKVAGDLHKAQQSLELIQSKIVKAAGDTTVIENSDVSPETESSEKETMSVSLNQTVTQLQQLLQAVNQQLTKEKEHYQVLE
Protocol: as §1, §2

ABCD1 = molecular target: T3, ABCD1 (human, UniProt P33897 1-745)
T3 construct: also called NP_000024.2
T3 sequence (P33897 whole entry): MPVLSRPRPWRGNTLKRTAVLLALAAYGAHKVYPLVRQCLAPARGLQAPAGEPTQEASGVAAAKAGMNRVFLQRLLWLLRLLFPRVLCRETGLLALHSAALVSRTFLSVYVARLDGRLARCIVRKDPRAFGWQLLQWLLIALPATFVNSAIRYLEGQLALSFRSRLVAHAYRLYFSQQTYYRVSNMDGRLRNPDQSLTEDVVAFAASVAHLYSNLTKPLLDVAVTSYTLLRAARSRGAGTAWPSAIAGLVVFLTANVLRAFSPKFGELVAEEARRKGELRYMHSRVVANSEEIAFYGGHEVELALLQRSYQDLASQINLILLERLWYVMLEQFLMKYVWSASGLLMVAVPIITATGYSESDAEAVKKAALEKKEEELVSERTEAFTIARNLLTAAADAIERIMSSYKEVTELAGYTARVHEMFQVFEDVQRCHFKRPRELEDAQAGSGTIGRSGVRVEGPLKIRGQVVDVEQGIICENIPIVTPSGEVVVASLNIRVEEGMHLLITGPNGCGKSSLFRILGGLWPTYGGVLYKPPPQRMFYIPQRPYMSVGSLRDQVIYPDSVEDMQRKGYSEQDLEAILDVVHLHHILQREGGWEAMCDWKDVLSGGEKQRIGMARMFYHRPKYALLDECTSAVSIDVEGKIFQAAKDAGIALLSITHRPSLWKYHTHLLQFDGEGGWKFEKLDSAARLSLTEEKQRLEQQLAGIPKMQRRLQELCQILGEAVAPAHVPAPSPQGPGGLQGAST
Protocol: as §1, §2

Measured: co-IP mass spectrometry count

B1: N-terminal FLAG tagged B3GNT2 (enzyme, human, UniProt Q9NY97 1-397, looked up)
chain: MSVGRRRIKLLGILMMANVFIYFIMEVSKSSSQEKNGKGEVIIPKEKFWKISTPPEAYWNREQEKLNRQYNPILSMLTNQTGEAGRLSNISHLNYCEPDLRVTSVVTGFNNLPDRFKDFLLYLRCRNYSLLIDQPDKCAKKPFLLLAIKSLTPHFARRQAIRESWGQESNAGNQTVVRVFLLGQTPPEDNHPDLSDMLKFESEKHQDILMWNYRDTFFNLSLKEVLFLRWVSTSCPDTEFVFKGDDDVFVNTHHILNYLNSLSKTKAKDLFIGDVIHNAGPHRDKKLKYYIPEVVYSGLYPPYAGGGGFLYSGHLALRLYHITDQVHLYPIDDVYTGMCLQKLGLVPEKHKGFRTFDIEEKNKNNICSYVDLMLVHSRKPQEMIDIWSQLQSAHLKC
notes: Bait of the co-IP; pulled down from cell lysate with mouse anti-FLAG antibody; also called N-FLAG B3GNT2; N-term FLAG; not shown: N-terminal FLAG tag
0: all assays above

From patent US20240261333A1 (published 2024)
